# Measurements from patent US20250084176A1 (F STAR BETA, published 2025).
# Positions count from the first letter of the chain named.
# B1: G1-AA/HelD1.3 (antibody, human IgG1, kappa, L234A L235A, V domains shown)
# VH: QVQLQESGPGLVRPSQTLSLTCTVSGSTFSGYGVNWVRQPPGRGLEWIGMIWGDGNTDYNSALKSRVTMLVDTSKNQFSLRLSSVTAADTAVYYCARERDYRLDYWGQGSLVTVSS
# VL: DIQMTQSPASLSASVGETVTITCRASGNIHNYLAWYQQKQGKSPQLLVYNAKTLADGVPSRFSGSGSGTQYSLKINSLQPEDFGSYYCQHFWSTPRTFGGGTKLEIKR
# notes: Anti-hen egg lysozyme human IgG1 with the LALA mutation; also called G1-AA/HeID1.3; G1AA/HeID1.3 mAb (with LALA)
# B2: G1-AA/20H4.9 (antibody, V domains shown)
# VH: QVQLQQWGAGLLKPSETLSLTCAVYGGSFSGYYWSWIRQSPEKGLEWIGEINHGGYVTYNPSLESRVTISVDTSKNQFSLKLSSVTAADTAVYYCARDYGPGNYDWYFDLWGRGTLVTVSS
# VL: EIVLTQSPATLSLSPGERATLSCRASQSVSSYLAWYQQKPGQAPRLLIYDASNRATGIPARFSGSGSGTDFTLTISSLEPEDFAVYYCQQRSNWPPALTFGGGTKVEIKR
# B3: FS22-053/HelD1.3 (bispecific antibody, human IgG1, kappa)
# heavy: QVQLQESGPGLVRPSQTLSLTCTVSGSTFSGYGVNWVRQPPGRGLEWIGMIWGDGNTDYNSALKSRVTMLVDTSKNQFSLRLSSVTAADTAVYYCARERDYRLDYWGQGSLVTVSSASTKGPSVFPLAPSSKSTSGGTAALGCLVKDYFPEPVTVSWNSGALTSGVHTFPAVLQSSGLYSLSSVVTVPSSSLGTQTYICNVNHKPSNTKVDKKVEPKSCDKTHTCPPCPAPELLGGPSVFLFPPKPKDTLMISRTPEVTCVVVDVSHEDPEVKFNWYVDGVEVHNAKTKPREEQYNSTYRVVSVLTVLHQDWLNGKEYKCKVSNKALPAPIEKTISKAKGQPREPQVYTLPPSRDELNPPYLFSNQVSLTCLVKGFYPSDIAVEWESNGQPENNYKTTPPVLDSDGSFFLYSKLTVYYNRWQDGNVFSCSVMHEALHNHYTQKSLSLSPG
# light: DIQMTQSPASLSASVGETVTITCRASGNIHNYLAWYQQKQGKSPQLLVYNAKTLADGVPSRFSGSGSGTQYSLKINSLQPEDFGSYYCQHFWSTPRTFGGGTKLEIKRTVAAPSVFIFPPSDEQLKSGTASVVCLLNNFYPREAKVQWKVDNALQSGNSQESVTEQDSKDSTYSLSSTLTLSKADYEKHKVYACEVTHQGLSSPVTKSFNRGEC
# notes: Mock mAb^2, IgG1 without LALA; also called FS22-053/HeID1.3
# B4: FS22-172-003-AA/HelD1.3 (bispecific antibody, human IgG1, kappa, L234A L235A)
# heavy: QVQLQESGPGLVRPSQTLSLTCTVSGSTFSGYGVNWVRQPPGRGLEWIGMIWGDGNTDYNSALKSRVTMLVDTSKNQFSLRLSSVTAADTAVYYCARERDYRLDYWGQGSLVTVSSASTKGPSVFPLAPSSKSTSGGTAALGCLVKDYFPEPVTVSWNSGALTSGVHTFPAVLQSSGLYSLSSVVTVPSSSLGTQTYICNVNHKPSNTKVDKKVEPKSCDKTHTCPPCPAPEAAGGPSVFLFPPKPKDTLMISRTPEVTCVVVDVSHEDPEVKFNWYVDGVEVHNAKTKPREEQYNSTYRVVSVLTVLHQDWLNGKEYKCKVSNKALPAPIEKTISKAKGQPREPQVYTLPPSRDELPYIIPPYNQVSLTCLVKGFYPSDIAVEWESNGQPENNYKTTPPVLDSDGSFFLYSKLTVGADRWLEGNVFSCSVMHEALHNHYTQKSLSLSPG
# light: B3 light
# notes: Mock mAb^2, IgG1 with LALA
# B5: FS22-053-017/HelD1.3 (bispecific antibody, human IgG1, kappa)
# heavy: B3 heavy with Y418H, N419W, Q422L, D423E
# light: B3 light
# notes: Mock mAb^2, IgG1 without LALA; also called FS22-053-17; FS22-053-017/HeID1.3
# B6: FS22-172/HelD1.3 (bispecific antibody, human IgG1, kappa)
# heavy: B4 heavy with A233L, A234L, P358R, Y359K, I360Y, I361Y
# light: B3 light
# notes: Mock mAb^2, IgG1 without LALA
# Tests used:
# [1] = biological target: T1, human CD137, full length, on cells (human, UniProt Q07011 24-255); assay: flow cytometry on CD137low DO11.10 cells (ABC 14,208), anti-human IgG-PE detection, geometric mean PE
# T1 construct: also called DO11.10.hCD137; HEK.FRT.luc.hCD137
# T1 sequence (Q07011 24-255): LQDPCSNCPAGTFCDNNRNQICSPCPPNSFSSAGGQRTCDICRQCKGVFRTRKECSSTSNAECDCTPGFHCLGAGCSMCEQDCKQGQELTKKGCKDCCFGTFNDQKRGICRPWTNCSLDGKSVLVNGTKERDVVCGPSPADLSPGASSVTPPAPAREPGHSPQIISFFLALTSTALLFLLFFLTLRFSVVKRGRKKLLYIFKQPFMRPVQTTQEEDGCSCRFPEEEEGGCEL
# Procedure: (§1) A range of DO11.10 cells expressing different levels of CD137 were produced as described in Example 3.5. To determine the relative expression of CD137 in each cell line, the antibody binding capacity (ABC) was determined according to manufacturer's protocol (Quantum™ Simply Cellular® #816 Bangs Labs).
# (§2) All antibodies tested were diluted in FACS buffer in 120 μl. DO11.10 cells were then centrifuged, supernatant removed and cells resuspended in 100 μl of each antibody dilution and incubated at 4° C. for 45 min. Cells were washed twice by centrifugation with 150 μl FACS buffer, resuspended in 100 μl containing goat anti-human IgG (γ-chain specific) F (ab′) 2 fragment-R-Phycoerythrin antibody (Sigma, P8047) diluted 1:1000 in FACS buffer and incubated at 4° C. for 45 min. The cells were washed once with 150 μl FACS buffer and then with 150 μl DPBS, resuspended in 150 μl DPBS containing DAPI (Biotium, 40043) at 1:10.000 and read on the BDCantoll or iQue (Intellicyt). Data was analysed using FlowJo v10 to determine the signal geometric mean for PE for live cells in each well.
# [2] = biological target: T1, human CD137, full length, on cells; assay: cell-based or functional assay
# [3] = biological target: T1, human CD137, full length, on cells; assay: flow cytometry on CD137int/low DO11.10 cells (ABC 143,065), anti-human IgG-PE detection, geometric mean PE
# Procedure: as §1, §2
# [4] = biological target: T1, human CD137, full length, on cells; assay: flow cytometry on CD137int DO11.10 cells (ABC 404,597), anti-human IgG-PE detection, geometric mean PE
# Procedure: as §1, §2
# [5] = biological target: T1, human CD137, full length, on cells; assay: cell-based or functional assay; remark: listed apart in the source
# [6] = biological target: T1, human CD137, full length, on cells; assay: cell-based or functional assay; remark: listed apart in the source
# [7] = biological target: T1, human CD137, full length, on cells; assay: cell-based or functional assay; remark: listed apart in the source
# [8] = biological target: T2, cCD137-mFc-Avi (cynomolgus; mouse, one biotin on the Avi sequence of each monomer (BirA); unbiotinylated in the SPR of Example 5.6); assay: SPR (Biacore), mAb2 captured by anti-human Fab, antigen in solution, 1:1 Langmuir
# T2 construct: also called cyno CD137-mFc-Avi; dimeric cynomolgus CD137; not shown: mouse IgG2a Fc domain (mIgG2a Fc)
# T2 chain: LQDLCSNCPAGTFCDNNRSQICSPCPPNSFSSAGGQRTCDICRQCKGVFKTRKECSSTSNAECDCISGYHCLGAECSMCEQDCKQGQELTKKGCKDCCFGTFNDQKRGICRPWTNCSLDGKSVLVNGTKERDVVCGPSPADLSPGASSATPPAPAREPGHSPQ
# Procedure: (§3) An anti-human Fab capture antibody was immobilised on all four flow cells of a CM5 series S chip (GE Healthcare #BR-1005-30) to an average surface density of 6000 RU following the manufacturer's recommendations (GE Healthcare, human Fab capture Kit, #28958325). IEach mAb² was captured to approximately 150 RU by injecting a 3 μg/ml solution of mAb² diluted in HBS-EP+ buffer (GE Healthcare #BR1006-69) for 60 seconds at 30 μl/min. Then different concentrations of human, cyno or mouse CD137 antigen (unbiotinylated human, cyno or mouse CD137-mFc-Avi or human CD137-Avi-His) in HBS-EP+ buffer were flowed over the chip for 3 min at 60 μl/min and then allowed to dissociate for 10 minutes. After each antigen concentration the chip was regenerated by infecting 10 mM glycine pH 2.1 at a flow rate of 30 μl/min for 30 seconds. Buffer HBS-EP+ was injected before the highest concentration of antigen and after the lowest concentration of antigen for reference subtraction, and one of the concentrations at random was repeated twice. The binding kinetics were fit with a 1:1 Langmuir model to generate equilibrium binding constants (KD) for each sample. Data analysis was performed with BiaEvaluation software version 3.2.
# [9] = biological target: T3, hCD137-mFc-Avi (human; mouse, UniProt Q07011 24-186, one biotin on the Avi sequence of each monomer (BirA); unbiotinylated in the SPR of Example 5.6); assay: as above
# T3 construct: Made in-house in HEK293-6E; also called human CD137-mFc-Avi; dimeric human CD137; not shown: mouse IgG2a Fc domain (mIgG2a Fc)
# T3 sequence (Q07011 24-186): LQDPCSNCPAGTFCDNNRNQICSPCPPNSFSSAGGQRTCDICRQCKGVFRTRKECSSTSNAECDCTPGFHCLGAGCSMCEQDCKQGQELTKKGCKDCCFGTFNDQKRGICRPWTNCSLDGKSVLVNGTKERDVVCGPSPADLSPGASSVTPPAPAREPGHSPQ
# Procedure: as §3
# [10] = biological target: T1, human CD137, full length, on cells; assay: flow cytometry on CD137high DO11.10 cells (ABC 1,206,283), anti-human IgG-PE detection, geometric mean PE
# Procedure: as §1, §2
# [11] = biological target: T4, mouse CD137, full length, on cells (mouse, UniProt P20334 24-256); assay: cell-based or functional assay
# T4 sequence (P20334 24-256): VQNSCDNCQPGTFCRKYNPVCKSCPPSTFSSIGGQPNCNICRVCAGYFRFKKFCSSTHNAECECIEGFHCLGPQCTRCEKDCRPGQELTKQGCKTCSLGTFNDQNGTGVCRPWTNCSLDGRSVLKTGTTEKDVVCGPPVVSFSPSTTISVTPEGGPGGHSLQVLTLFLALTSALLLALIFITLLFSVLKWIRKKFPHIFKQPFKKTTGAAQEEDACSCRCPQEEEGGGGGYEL
# [12] = biological target: T3, hCD137-mFc-Avi; assay: SPR (Biacore T200), mAb2 captured by anti-human Fab, hCD137-mFc in solution, 1:1 Langmuir
# Procedure: For the hCD137-mFc-Avi antigen the following method was used: an anti-human Fab molecule was immobilised on a CM5 chip to a surface density of between 9,000 and 11,000 response units (RU). The antibodies were diluted to 4 μg/ml in HBS-EP buffer and captured by the anti-Fab molecule with a flow rate of […].
# For mCD137-mFc-Avi binding kinetic determination, a different approach was used. […] The analysis of the data was done using the Biacore T200 evaluation software. Curves were subtracted against a blank flow cell and fitted using a 1:1 Langmuir binding model with mass transfer, setting RI to zero as constant and Rₘₐₓ to local.
# [13] = biological target: T4, mouse CD137, full length, on cells; assay: cell-based or functional assay; remark: listed apart in the source
Binder,"IL-2 release, human CD137 DO11.10 T cell activation assay, Protein L: +XL EC50 [2]",EC50 (read off the curve) [3],EC50 (read off the curve) [4],"NF-kB luciferase reporter (HEK.FRT.luc.hCD137), signal with against without Protein L [7]",Kd [8],Kd [9],also measured
B1,–,–,–,–,–,–,binding result [1]: no binding
B2,0.82 nM,~0.1 nM,~0.1 nM,–,–,–,"EC50 (read off the curve) [1]: ~0.1 nM; IL-2 release, DO11.10.hCD137 T cell activation assay: EC50 [5]: 0.26 nM; hIL-2 release, primary human CD8+ T cells, 20H4.9 (row without XL): EC50 [6]: 0.89 nM; hIL-2 release, primary human CD8+ T cells, 20H4.9 + XL (anti-hCH2): EC50 [6]: 0.5 nM"
B3,–,–,–,≥ 10 fold,34 nM,38 nM,–
B4,–,~0.8 nM,~0.5 nM,–,–,–,EC50 (read off the curve) [10]: ~0.5 nM
B5,0.82 nM,–,–,–,–,–,"IL-2 release, mouse CD137 DO11.10 T cell activation assay: EC50 against that of FS22-053-014 [11]: ~8 fold; Kd [12]: 4.59 nM; koff [12]: 0.000406 s⁻¹; kon [12]: 88500 M⁻¹ s⁻¹; IL-2 release, mouse CD137 DO11.10 T cell activation assay, Protein L: +XL EC50 [13]: 16.7 nM; IL-2 release, mouse CD137 DO11.10 T cell activation assay, Protein L: +XL Emax [13]: 41000 pg/mL"
B6,–,–,–,≥ 10 fold,203 nM,52 nM,–
